# Data taken from article PMC8203498.
# Molecular target: recombinant human protease-activated receptor 1 with GST tag (GST-PAR1) (human) (UniProt P25116)
# Experiment: SPR; BIAcore X100; GST-PAR1 (10 ug/mL) captured on anti-GST antibody immobilised on a CM5 chip (about 854 RU); running buffer 50 mM Hepes pH 7.0, 0.01% CHS, 0.1% CHAPS, 0.33 mM DOPC:DOPS; captured GST as blank; analytes injected at 125 to 1000 nM, 30 uL/min; single site model
binder,measurement,value
"GARASVLSGGELDRWEKIRL [F1 peptide (p17 N-terminal sequence, aa 2 to 21)]",Kd,46 nM
